The values that follow are results of earlier work, collected in PMC3758474.

The pKd is the negative decadic logarithm of the Kd, by convention in mol/L.

pKd: −log10 of the molar value.

Series [1] concerns the target erbB2 pY1139 peptide pY1139 peptide (Homo sapiens) (UniProt P04626). Kind of series: ITC. For orientation: ITC needs no label: the signal is the heat of the interaction.
Series [2] has as its target Grb7 SH2 (Homo sapiens) (UniProt Q14451).

Turning to Grb7 SH2 (from UniProt Q14451), the pKd in series [1] is 5.64; in series [2], 4.96.
